Source: publication PMC5037460, “The structure of a furin-antibody complex explains non-competitive inhibition by steric exclusion of substrate conformers” (Scientific Reports, 2016)

Assays:
human furin, wild type = molecular target: T1, human furin, wild type (Homo sapiens); experiment: SEC; analytical gel permeation chromatography, Superdex 200 5/150 GL, 10 mM Hepes, pH 7.5, 100 mM NaCl, 1 mM CaCl2; proteins premixed at equimolar ratio, ~23 μM each; 0.2 ml/min; peak fractions by SDS-PAGE; details: both partners purified
T1 construct: furin, human; also called Furin^WT; source: purified
T1 chain: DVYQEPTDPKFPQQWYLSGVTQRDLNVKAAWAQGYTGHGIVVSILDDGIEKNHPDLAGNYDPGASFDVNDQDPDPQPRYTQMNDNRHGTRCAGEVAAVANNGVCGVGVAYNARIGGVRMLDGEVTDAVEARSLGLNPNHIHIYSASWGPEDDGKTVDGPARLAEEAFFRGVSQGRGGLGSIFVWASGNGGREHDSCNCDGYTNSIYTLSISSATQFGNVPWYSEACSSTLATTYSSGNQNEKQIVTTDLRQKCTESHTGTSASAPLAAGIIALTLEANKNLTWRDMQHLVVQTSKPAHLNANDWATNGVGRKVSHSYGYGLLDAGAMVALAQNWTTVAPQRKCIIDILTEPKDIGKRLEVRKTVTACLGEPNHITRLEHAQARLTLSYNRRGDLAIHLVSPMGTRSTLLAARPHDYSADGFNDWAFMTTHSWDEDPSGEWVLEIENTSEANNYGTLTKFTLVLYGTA

[1] = molecular target: T2, dec-RVKR-CMK-inhibited human furin (Homo sapiens, covalently inhibited by decanoyl-RVKR-chloromethylketone (dec-RVKR-CMK)); experiment: crystal structure; furin:RVKR-CMK:Nb14 complex (~9 mg/ml in 10 mM Hepes, pH 7.5, 100 mM NaCl, 2 mM CaCl2) crystallised in 0.1 M sodium acetate, pH 5.6, 16-18% PEG 3350; two copies of the complex in the asymmetric unit; details: both partners purified
T2 construct: furin, human; also called furin:RVKR-CMK; source: purified, complex with Nb14 purified by GPC
T2 chain: T1 chain

B1: inhibitory camelid antibody Nb14 (VHH)
VHH: QVQLQESGGGLVQPGGSLTLSCAASGFTFSSYSMYWVRQAPGKGLEWVSSINRVGSNTDYADSVKGRFTISRDNAKNTLYLQMNSLKSEDTALYYCAVGMYAAPPWRGQGTQVTVSS
notes: they are in the deposited structures PDB 5JMO (complex with furin) and PDB 5JMR (free Nb14); also called nanobody Nb14; source: purification in Supplementary Information
binding result (human furin, wild type): binds
binding result [1]: binds
